± gives the uncertainty stated by the source.
Assay: amyloid nucleation score (Sup35N fusion, yeast selection) (log enrichment); library NNK2; higher = more nucleation; inactive = no reads after selection
How it was run: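 Peptides of 20 random codons, each fused to Sup35N, were expressed in psi-negative yeast. Cells were induced with 100 μM copper sulfate for 24 hours and grown 7 days at 30°C on medium lacking adenine and uracil, and plasmid inserts before and after selection were Illumina-sequenced. Nucleation scores are DiMSum log enrichments of output over input reads, centred on the mode score of non-aggregating sequences, and sequences under 100 input reads were excluded.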

Row | Substance | amyloid nucleation score
1 | CNHIRSKVKVVVCTGHCAVF | 4.62 ± 0.11
2 | QKHAYAWLTPF | 1.54 ± 0.21
3 | EVHASYVRTSWDVCTWVGHV | 2.29 ± 0.26
4 | STNCFRAFTHYPMYIGCVVM | -0.159 ± 0.8
5 | NLHEMLIGHGRQVRR | 1.42 ± 0.36
6 | PIGLGVCLVICLKNEVSRCW | 3.37 ± 0.063
7 | YYGVKSAM | 0.074 ± 0.49
8 | LFWDLSY | -0.959 ± 0.36
9 | SWRNSKISMPNSAFTSQDTV | 0.052 ± 0.31
10 | SYCKPTVIACVMLSCQQ | 8.866 ± 0.067
11 | VNWLFACVELR | 0.365 ± 0.36
12 | KNTVKDGWRMMMDGCMNTHW | 0.259 ± 0.15
13 | FMGGFG | 0.079 ± 0.63
14 | DLLGIEPTTVCFYFDTDIRH | 2.9 ± 0.07
15 | TLPCFRVFYVTFQYSNHLLS | 8.55 ± 0.042
16 | FMHNHGPGLDTYAYGTR | -1.13 ± 0.64
17 | CHKVWSKEDWATVWSVGGLV | -0.02 ± 1.1
18 | MASITDDRADLHH | inactive
19 | LTEVIVFYIRYMQARDRLIR | inactive
20 | TCYTKPLNEYYE | 0.011 ± 0.56
21 | SAYLPSHLYTAFEPHGLVST | 0.933 ± 0.2
22 | QTNCETCVFNNTFELMLHQS | 4.37 ± 0.087
23 | YKRIHSSKFRPDYSHMV | -0.403 ± 1
24 | GTYAKSMLSSKVVAG | 1.48 ± 0.18
25 | FAFTPIC | -1.59 ± 1

Row | Substance | amyloid nucleation score
26 | DNLLSPTSRKFRVDTILL | -0.256 ± 0.4
27 | CLRYGISRWLRLFRINNVVE | 0.046 ± 0.34
28 | QALQFIVSQRL | 3.59 ± 0.11
29 | LNYALLVEFCLCLNPDNNSS | 8.57 ± 0.055
30 | YNDVCLCNGSLGWKLVLE | -0.177 ± 1
31 | RCLGLCFICEYDFGVMRYSA | -0.633 ± 0.48
32 | RVVVTEKKLPCLGQGTIVPT | 0.03 ± 0.35
33 | NIFQGAICYQTYGGVFPYFL | 6.151 ± 0.042
34 | GCDDDDAA | 1.31 ± 0.32
35 | KIMYVSQECSGADLLGLYFF | -0.747 ± 0.79
36 | EVRFSILFGSVIKRTV | 1.09 ± 0.21
37 | YTDIHESL | inactive
38 | YFKFAGV | 4.16 ± 0.095
39 | CHRNFITCLYAMYSELVLVL | 0.648 ± 0.54
40 | SGGSDMQHS | 1.61 ± 0.3
41 | FYSAVYMLFIVMWFGY | inactive
42 | YIAIEYLFSFRGFRGTGVMG | 0.034 ± 0.63
43 | ASGEVMYVNHYVFPQAFTDE | inactive
44 | DALVFSPCRALWTLLSVCEG | 0.896 ± 0.3
45 | YFMLRSVTL | 3.75 ± 0.1
46 | MRQWEQNSCYDLPAYLWNVG | -0.079 ± 0.56
47 | SNGYGRLAQLVGGWRDTKGG | 0.398 ± 0.29
48 | FDKCLDKLMDKEKHALTFPQ | -0.453 ± 1.1
49 | CYHSQNDCHKVTWCFPYLAH | -0.449 ± 0.44
50 | KGRVVSCIWGSCPGTSGR | -0.235 ± 1.1

Row | Substance | amyloid nucleation score
51 | HRCSKPSWKVCIEWCRSRCV | 0.614 ± 0.45
52 | YFRSYLLHTLLG | 0.479 ± 0.45
53 | RSSRYLLPFNGGTPFYDSR | -0.284 ± 1.1
54 | YIHVYVLMLGLNRQF | 4.74 ± 0.071
55 | RGPTAHTFSARENP | -0.312 ± 0.45
56 | NCQYFMRGFSVISSTFGMLS | -0.395 ± 0.76
57 | ELKFSINWHW | 4.4 ± 0.083
58 | YPWRYIFLSDPAGLIQTCRF | -1.34 ± 0.54
59 | HSFEFWIDTRWLVFINPYSR | -0.846 ± 0.44
60 | RHSKFRVITENMIDPFQRS | 0.249 ± 0.64
61 | FVTFFLSSHWVIVLDAYSLN | -0.61 ± 1.1
62 | DVFYRSVPMQVGWQVMWACD | 0.703 ± 0.15
63 | GKTISNFLGMTTSCEFGR | -0.81 ± 1
64 | LSKCHCNILCVLMTCMWHLY | 0.333 ± 0.46
65 | DPYYLKGYCVWEEYSWCPS | -0.749 ± 0.55
66 | YYRIWYRVLIPSP | -0.43 ± 0.29
67 | KNSVVL | 0.275 ± 0.64
68 | GVHTLWNRMKWPIENRVYGS | 1.59 ± 0.3
69 | YVMSVRSAIRPIGSCVKKEY | 0.101 ± 0.76
70 | GSCNVMGRCRIFGLGFWGIV | inactive
71 | CFTSWMRPRKSYLTDNRCIN | -0.55 ± 0.79
72 | SLSRFCMNLCRFSGGIQSVR | -1.34 ± 0.42
73 | STLWVAKGH | -0.064 ± 1.1
74 | RCEVAMDGVESVKSFPA | 0.697 ± 0.35
75 | DPVSYILDWASRGNS | 0.523 ± 0.64

Row | Substance | amyloid nucleation score
76 | PSVGYSITWGNILLYRIGFR | -1.19 ± 1
77 | VHPGTR | 4.08 ± 0.065
78 | LHCLRDIIKRNKDSFPQMWG | -0.607 ± 0.33
79 | FSNSTIFDVHAQVLGDFERP | -0.254 ± 1
80 | CNGRVKAYVSQNYVSEYGVL | -0.1 ± 0.2
81 | LLINDKCPYERMAGQWLFGS | 0.268 ± 0.65
82 | LTSKAVAYNDLACFMLS | 0.613 ± 0.74
83 | GSLKEAAGEYMVCRVRLSVG | 0.26 ± 0.46
84 | FTSVRMCCILTLGISGSVRA | inactive
85 | SAFVSVCVSDRDRMGCYYSS | inactive
86 | YISNYPNVRLALDPTTCAGM | -0.452 ± 0.48
87 | NRSTKTMSYWPLVRNLLT | 1.51 ± 0.3
88 | TQSNALPVGPYSFTFFGRGY | 0.54 ± 0.8
89 | RRGDKRMVTDFTLLTTGGGR | 0.543 ± 0.33
90 | VGAYPEEKR | -0.013 ± 0.38
91 | TYYSLSLVAIMGAR | 1.82 ± 0.2
92 | AACYCCISRMVLYFSFHGSC | inactive
93 | FIVWVV | -0.916 ± 1.1
94 | KPFHLIKTWKQLLLEKGGPN | -0.157 ± 0.28
95 | VVTNCAALVNWRFFYLCNSY | 3.93 ± 0.054
96 | LMSSLFPLSSACY | -0.545 ± 0.38
97 | WSTLGIDVSSCT | -1.52 ± 0.54
98 | CGKYSS | 7.602 ± 0.041
99 | PAWAHVSLRLMLFYWGYLFY | inactive
100 | YTSSCILGRTFPVLKCNIDY | -1.33 ± 0.76

Row | Substance | amyloid nucleation score
101 | FMDWKLYSDPWAKF | -0.639 ± 0.37
102 | VMIMVEVNPWGRCGRRRERS | 9.613 ± 0.052
103 | LCNKVL | 0.27 ± 0.27
104 | QRYGVFAYGRLIRIHCRRLG | 0.159 ± 0.29
105 | TTEWFHESFREQFVMESFVS | -1.26 ± 0.41
106 | TSLDRRICKRGTVIVEIPHA | 5.28 ± 0.055
107 | FNTSFNSVFPCSYRRFTGDI | 1.72 ± 0.097
108 | LGSVGFAVWG | 0.17 ± 0.46
109 | IMLAVYPIIEGFIVDNMHRI | -1.25 ± 1.1
110 | ELAMNIMMAFYYVCSIISTE | inactive
111 | FSFTYQRFSDITCQSTLGLV | -0.705 ± 0.26
112 | HVYVGL | -0.578 ± 1.1
113 | IYNNLTCWSDASHGVCFGMD | 4.67 ± 0.058
114 | TYSGLKNARWEFWMKSFDYF | -1.12 ± 0.5
115 | LRLTYSWSYSCLLITNQRQN | -0.009 ± 0.65
116 | SSWKCIIYNPQCEVPTGEQE | -0.289 ± 0.49
117 | EWSFLMNFSIMYRHFRVLAL | -1.35 ± 0.78
118 | HSFMSRVARVSWMEMVVTLA | 1.26 ± 0.41
119 | FAIMHFY | -0.711 ± 1.1
120 | YGRLRLVA | -0.637 ± 0.54
121 | SCWYKRWTPCSRDYDSFYIA | 2.72 ± 0.09
122 | WYVLFSMMWA | -1.36 ± 0.78
123 | TSFLNLIFIYLALKRWLILF | 4.74 ± 0.06
124 | SYNYLYILRCYYLDVHSFRT | -0.788 ± 0.76
125 | GIIWT | -0.078 ± 0.26

Row | Substance | amyloid nucleation score
126 | YGSKTRRVWGLRGYRDEGYR | -0.413 ± 0.74
127 | ILRDVVDLQMHNTWRNRGDQ | 3.66 ± 0.063
128 | LIVSPCN | -0.059 ± 0.26
129 | SGGRYTEATWECG | 0.316 ± 0.65
130 | EVFGGFTRRRCVVLPRHRAW | 1.9 ± 0.27
131 | IDHINF | -0.524 ± 0.64
132 | SIVFSLW | 1.62 ± 0.14
133 | VYMKFMGMMQHFIKLKSRDL | inactive
134 | ALECGRTMEINLTGR | 0.942 ± 0.37
135 | DTGNMVSEKPGGILSDMGRI | inactive
136 | QTLMLRSCYNWYPCGAAVVP | 2.5 ± 0.093
137 | ASVLWHFLPSGGARFVCSER | 0.538 ± 0.5
138 | TMYRYASFKADLSDFKAAYE | 0.524 ± 0.81
139 | MYLVRIR | 0.316 ± 0.42
140 | LIFYGSCIFQRFRIGVLSSG | -0.09 ± 0.65
141 | PPYALDVTFVMRPKLSSR | 1.21 ± 0.23
142 | GLGALVGVTLYRRTQQNMWG | 6.313 ± 0.056
143 | YKKGGLFDC | -1.38 ± 0.39
144 | HLENGINIWDKLY | -0.363 ± 1.1
145 | NDKFCATDESVRSRSI | 0.042 ± 0.37
146 | LSKSVLKNTWGVYVI | -0.358 ± 0.79
147 | NIFFVRCYFNVLYNGALCHS | 7.025 ± 0.043
148 | VLFVTVPLSMVIMVSQT | -0.277 ± 1
149 | LLLFVILCNSNWLCWPR | inactive
150 | MYLGH | -0.864 ± 1.1

Row | Substance | amyloid nucleation score
151 | INMCNP | 2.89 ± 0.072
152 | KCGRWPANAVYWHDTLSCAC | 0.231 ± 0.31
153 | YNWGNASSSGVKPEPGGQPT | 0.696 ± 0.27
154 | CWFYVMGLWHVLLLCWS | inactive
155 | PISNLHILGFHHLTQHDRTV | 1.05 ± 0.3
156 | SRCMILFFRFIVSRYEVKSL | 1.77 ± 0.12
157 | FLYIRRAVGKWFLVFVTLQQ | 0.135 ± 0.48
158 | KLVMFVGIFSNT | 6.39 ± 0.085
159 | EGVKF | 0.436 ± 0.8
160 | LDFALNCNSRFSLTQDS | 2.83 ± 0.13
161 | VVFFNGACALATLAAVSLGP | 6 ± 0.062
162 | FFHKDPLLQNRIVLHMQVPA | inactive
163 | LRFLVGVHAAYYIHTS | -0.649 ± 0.79
164 | SNCGVLD | inactive
165 | LHSYPVKYGSRKDTRAKCGG | 0.605 ± 0.29
166 | SSRSDAIFIAICLNFIKGKM | 1.32 ± 0.33
167 | VLGVLQFVAFWNVVMWISPL | -0.659 ± 0.76
168 | FEMIC | 0.783 ± 0.57
169 | LYTQESYSDSFVNSLRCSKV | -0.064 ± 1.1
170 | CPLPIVSFKTLINLNMMYKS | -0.269 ± 0.43
171 | CLTSFEES | -0.155 ± 0.65
172 | AFDIFFNVVWRPFVHSCLAR | 0.041 ± 0.56
